Biological target: NRC3 NB-ARC domain (NRC3^NB-ARC, Val-152 to Ser-507) (Nicotiana benthamiana)
Assay: SEC

Recombinant SS15 protein (Ser-25 to Ile-246, lacking signal peptide) (domain or fragment)
stoichiometry N: 1

From PMC8412950
